Laboratory results taken from patent publication US6740739B1, “Substitutional variants of APO-2 ligand” (Genentech, Inc., priority 1998, dated 2004).
Changes are numbered by the printed parent chain. Numbers in names are those of the source. Each block holds one molecule with its values, some of them ahead of it.

Tests used:
SK-MES-1 cells = assay: Apoptosis bioassay with crystal violet staining; assay type: cell-based, human; details: 24 hours, FIGS. 17 and 18
Experimental: SK-MES-1 human lungcarcinomacells (ATCCHTB 58) were culturedin DMEM:Ham'sF-12 (50:50) media supplemented with 10% FBS, 2 mM L-glutamine, 100 U/ml penicillin, and 100 microgram streptomycin. SK-MES-1 cells were seeded in 96-well Falcon tissue culture treated microplates in a volume of 0.1 ml at a density of 4.0×10^4 cells/well and allowed to attach overnight at 37° C. Apoptosis was induced by adding the various Apo-2L substitutional variants or Apo-2L (consisting of amino acids 91-281 of FIG. 1A; referred to as Apo-2L.2) for 24 hours. Following treatment with the test proteins, the media was removed and the wells were stained for 15 minutes with a 0.5% solution of crystal violet in methanol. The cell number was determined by measuring optical density of the dry plates at 540 nm using a SLT 340 ATC plate reader (Salzburg, Austria).

DR4 = biological target: T1, DR4 (Homo sapiens, UniProt O00220); assay: BIAcore kinetic binding analysis; details: IgG-receptor fusion DR4 immobilized; significant = >2-fold; FIG. 19
T1 construct: Each of the Apo-2L receptor proteins were prepared as immuno adhesin sessentially as described in Ashkenazi et al; made in house
T1 sequence (O00220 24-239 limits assumed): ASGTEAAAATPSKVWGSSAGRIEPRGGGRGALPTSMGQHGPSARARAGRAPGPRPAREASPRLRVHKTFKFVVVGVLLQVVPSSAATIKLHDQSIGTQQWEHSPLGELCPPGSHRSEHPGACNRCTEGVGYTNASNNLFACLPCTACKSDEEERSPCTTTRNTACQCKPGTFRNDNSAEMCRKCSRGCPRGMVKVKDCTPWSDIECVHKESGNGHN
Experimental: (§1) For comparison, Apo-2L, consisting of amino acids 91-281 was also tested in the BIAcore for binding to the IgG-receptor fusion molecules. Each of the Apo-2L receptor proteins were prepared as immuno adhesin sessentially as described in Ashkenazi et al., Proc. Natl. Acad. Sci., 88:10535-10539 (1991). The IgG-receptor fusion molecules were immobilized to the CM5 BIAcore chip, research grade (Pharmacia), using NHS-EDC amine coupling chemistry. The Apo-2L alanine-substituted proteins were serially diluted 2-fold from 500 nM to 15.625 nM in the BIAcore running buffer, PBS/0.05% Tween 20, and passed across the sensor chip surface with immobilized receptor. Specific kinetic binding parameters were used to determine the KD value using the BIAcore evaluation software (according to manufacturer's instructions).

DR5 = biological target: T2, DR5 (Homo sapiens, UniProt O14763); assay: BIAcore kinetic binding analysis; details: IgG-receptor fusion DR5 immobilized; significant = >2-fold; FIG. 19
T2 construct: Each of the Apo-2L receptor proteins were prepared as immuno adhesin sessentially as described in Ashkenazi et al; made in house
T2 sequence (O14763 56-184 limits assumed): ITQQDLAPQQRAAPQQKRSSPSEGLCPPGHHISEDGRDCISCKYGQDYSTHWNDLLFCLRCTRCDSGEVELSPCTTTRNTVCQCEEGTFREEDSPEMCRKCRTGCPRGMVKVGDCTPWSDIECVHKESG
Experimental: as §1

DcR2 = biological target: T3, DcR2 (Homo sapiens, UniProt Q9UBN6); assay: BIAcore kinetic binding analysis; details: IgG-receptor fusion DcR2 immobilized; significant = >2-fold; FIG. 19
T3 construct: Each of the Apo-2L receptor proteins were prepared as immuno adhesin sessentially as described in Ashkenazi et al; made in house
T3 sequence (Q9UBN6 56-211 limits assumed): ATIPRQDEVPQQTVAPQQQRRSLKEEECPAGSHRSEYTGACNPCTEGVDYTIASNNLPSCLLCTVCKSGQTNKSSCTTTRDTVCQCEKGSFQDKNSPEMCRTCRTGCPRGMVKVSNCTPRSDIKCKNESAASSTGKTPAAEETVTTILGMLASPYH
Experimental: as §1

OPG = biological target: T4, OPG (Homo sapiens, UniProt O00300); assay: BIAcore kinetic binding analysis; details: OPGR-IgG immobilized; FIG. 19
T4 construct: made in house
T4 sequence (O00300 22-401): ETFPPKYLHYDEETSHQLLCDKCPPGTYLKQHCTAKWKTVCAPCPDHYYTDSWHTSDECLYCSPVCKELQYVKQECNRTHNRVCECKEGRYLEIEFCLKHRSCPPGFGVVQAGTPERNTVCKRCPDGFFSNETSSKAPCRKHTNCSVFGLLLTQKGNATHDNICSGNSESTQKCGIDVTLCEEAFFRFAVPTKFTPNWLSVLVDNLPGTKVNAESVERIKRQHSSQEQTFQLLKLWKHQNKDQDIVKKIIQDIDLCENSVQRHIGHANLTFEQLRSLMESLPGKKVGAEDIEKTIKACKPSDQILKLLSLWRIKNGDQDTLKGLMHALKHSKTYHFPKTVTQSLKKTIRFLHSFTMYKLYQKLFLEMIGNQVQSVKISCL
Experimental: as §1

change in binding (KD) compared to Apo-2L.2 (DR4): no significant change | change in binding (KD) compared to Apo-2L.2 (DR5): no significant change | change in binding (KD) compared to Apo-2L.2 (DcR2): no significant change | binding to OPGR-IgG compared to Apo-2L.2 (OPG): tighter binding
B1: D218A: Apo-2 ligand amino acids 91-281 with aspartic acid at position 218 substituted by alanine (protein)
chain: MAMMEVQGGPSLGQTCVLIVIFTVLLQSLCVAVTYVYFTNELKQMQDKYSKSGIACFLKEDDSYWDPNDEESMNSPCWQVKWQLRQLVRKMILRTSEETISTVQEKQQNISPLVRERGPQRVAAHITGTRGRSNTLSSPNSKNEKALGRKINSWESSRSGHSFLSNLHLRNGELVIHEKGFYYIYSQTYFRFQEEIKENTKNDKQMVQYIYKYTSYPAPILLMKSARNSCWSKDAEYGLYSIYQGGIFELKENDRIFVSVTNEHLIDMDHEASFFGAFLVG
increased apoptosis-inducing activity when compared to Apo-2L.2 (SK-MES-1 cells): approximately 3 fold

change in binding (KD) compared to Apo-2L.2 (DR4): no significant change | change in binding (KD) compared to Apo-2L.2 (DR5): no significant change | change in binding (KD) compared to Apo-2L.2 (DcR2): no significant change | binding to OPGR-IgG compared to Apo-2L.2 (OPG): tighter binding
B2: D269A: Apo-2 ligand amino acids 91-281 with aspartic acid at position 269 substituted by alanine (protein)
chain: B1 chain with A218D, D269A
increased apoptosis-inducing activity when compared to Apo-2L.2 (SK-MES-1 cells): ~7 fold
